Molecular target: TssM (enteroaggregative Escherichia coli (EAEC))
Assay: cryo-EM structure

stoichiometry N (TssJ per TssM): 1.5
Substance: TssJ (natural protein)
